This note sets out measurements from PMC9896932, “Apo and ligand-bound high resolution Cryo-EM structures of the human Kv3.1 channel reveal a novel binding site for positive modulators” (PNAS Nexus, 2022).

The data set deals with the molecule itself. Description: cryo-EM structure; purified flWT-Kv3.1a in LMNG 0.01%, Tris 20 mM pH 7.5, KCl 200 mM, DTT 1 mM; 2 mg/ml on the grid; apo (2.65 Å) and with 500 µM Lu AG00563 (3.0 Å), same organisation of subunits in both.

B1: wild type full length human Kv3.1 isoform a tetramer (natural protein, UniProt P48547 1-511, looked up)
chain: MGQGDESERIVINVGGTRHQTYRSTLRTLPGTRLAWLAEPDAHSHFDYDPRADEFFFDRHPGVFAHILNYYRTGKLHCPADVCGPLYEEELAFWGIDETDVEPCCWMTYRQHRDAEEALDSFGGAPLDNSADDADADGPGDSGDGEDELEMTKRLALSDSPDGRPGGFWRRWQPRIWALFEDPYSSRYARYVAFASLFFILVSITTFCLETHERFNPIVNKTEIENVRNGTQVRYYREAETEAFLTYIEGVCVVWFTFEFLMRVIFCPNKVEFIKNSLNIIDFVAILPFYLEVGLSGLSSKAAKDVLGFLRVVRFVRILRIFKLTRHFVGLRVLGHTLRASTNEFLLLIIFLALGVLIFATMIYYAERIGAQPNDPSASEHTHFKNIPIGFWWAVVTMTTLGYGDMYPQTWSGMLVGALCALAGVLTIAMPVPVIVNNFGMYYSLAMAKQKLPKKKKKHIPRPPQLGSPNYCKSVVNSPHHSTQSDTCPLAQEEILEINRAGRKPLRGMSI
notes: Kv3.1 (KCNC1), human, canonical isoform a, wild type, full length; C-terminal prescission 3C site followed by GFP, removed by HRV 3C protease on elution from the resin; The GFP tag was still on the protein when it was captured on the anti-GFP resin (co-purification statement); In the model residues 120-191, 218-239, 268-280, 295-311 and 372-376 were not built; also called flWT-Kv3.1a; Kv3.1a; …
B1: the stoichiometry N (as a rule, the number of molecules, sites or subunits per partner or assembly) stood at 4.
